The values below come from publication PMC3985960 (2014).

As usually defined, the Kd is the constant that tells how readily two partners part at equilibrium. A lower Kd goes with higher affinity.

This assay concerns the target T1, methylamine dehydrogenase (quinone MADH) (Paracoccus denitrificans, UniProt P22619).
T1 chain 1: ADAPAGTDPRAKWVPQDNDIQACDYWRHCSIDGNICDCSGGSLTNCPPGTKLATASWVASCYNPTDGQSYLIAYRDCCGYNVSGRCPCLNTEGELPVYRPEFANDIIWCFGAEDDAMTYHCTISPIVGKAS
T1 chain 2: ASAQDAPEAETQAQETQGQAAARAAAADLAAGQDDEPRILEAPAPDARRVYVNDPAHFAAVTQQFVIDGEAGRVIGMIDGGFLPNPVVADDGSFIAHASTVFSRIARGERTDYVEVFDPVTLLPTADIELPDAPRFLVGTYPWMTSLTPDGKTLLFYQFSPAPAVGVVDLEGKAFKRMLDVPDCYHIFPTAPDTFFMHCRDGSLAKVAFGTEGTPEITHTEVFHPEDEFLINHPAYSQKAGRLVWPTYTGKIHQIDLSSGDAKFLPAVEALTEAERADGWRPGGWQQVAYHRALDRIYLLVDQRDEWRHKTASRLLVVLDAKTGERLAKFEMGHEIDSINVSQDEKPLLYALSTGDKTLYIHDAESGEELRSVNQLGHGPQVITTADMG
Briefly: single-turnover kinetics.

B1: MauG (protein)
chain: EQARPADDALAALGAQLFVDPALSRNATQSCATCHDPARAFTDPREGKAGLAVSVGDDGQSHGDRNTPTLGYAALVPAFHRDANGKYKGGQFWDGRADDLKQQAGQPMLNPVEMAMPDRAAVAARLRDDPAYRTGFEALFGKGVLDDPERAFDAAAEALAAYQATGEFSPFDSKYDRVMRGEEKFTPLEEFGYTVFITWNCRLCHMQRKQGVAERETFTNFEYHNIGLPVNETAREASGLGADHVDHGLLARPGIEDPAQSGRFKVPSLRNVAVTGPYMHNGVFTDLRTAILFYNKYTSRRPEAKINPETGAPWGEPEVARNLSLAELQSGLMLDDGRVDALVAFLETLTDRRYEPLLEESRAAQKD
B1 showed a Kd of 10.4 µM.
